Experimental findings from patent publication US20090304651A1 (published 2009) are described below.

For assay [1], the target named is T1, recombinant human IGF-II (Insulin-like Growth Factor II) (human, UniProt P01344 25-91, biotinylated (Biotinyl-IGF-II, GroPep) where immobilised in SPR, site not stated; not biotinylated in ITC and as SPR analyte).
T1 construct: also called IGF2; IGF-2
The assay can be described thus: SPR, steady-state KD relative to wild type. Put shortly:
(§1)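 Biotinylated IGF-II (~50 RU) on a streptavidin Sensor Chip SA served as the surface for duplicate injections of His-tag-purified domain 11 proteins made by secretion in Pichia pastoris. On a BIAcore 3000 at 25° C, 2 min injections in HBS-EP flowed at 40 μl/min over a range of 4096–8 nM, or 16384–32 nM for three constructs. After subtracting the blank flow cell and buffer injections, equilibrium responses were fitted in BIAevaluation to a steady-state affinity model to give Kd, with relative affinity referenced to the unaltered domain 11 protein.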

Assay [2] addresses T1, recombinant human IGF-II (Insulin-like …). Briefly: SPR, IGF-II immobilised, kinetic fit. Put shortly:
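Biotinylated IGF-II (~50 RU) was captured on a streptavidin Sensor Chip SA, and domain 11 proteins, secreted from Pichia pastoris and purified by His-tag, were injected over it in duplicate and in randomised order. A BIAcore 3000 was run at 25° C in HBS-EP at 40 μl/min, with 2 min injections, 100 s dissociation and regeneration with 2 M MgCl₂. Analyte concentrations spanned 4096–8 nM, or 16384–32 nM for three constructs. After subtraction of blank flow cell and buffer injection signals, association rates, dissociation rates and Kd were obtained by global fitting of sensorgrams in BIAevaluation 4.0.1.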
In general terms: In SPR one partner is held on a chip, and binding of the other changes the refractive index at the surface.

For assay [3] the target is unchanged. The assay can be described thus: SPR, IGF-II immobilised, steady state. An outline of the steps:
as §1

T1 sequence (P01344 25-91 limits assumed): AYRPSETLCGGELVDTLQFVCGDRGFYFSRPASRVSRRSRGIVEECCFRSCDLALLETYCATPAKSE

B1: IGF2R domain 11 with arginine at position 1544 (E1544R) (receptor)
chain: NEHDDCQVTNPSTGHLFDLSSLSGRAGFTAAYSRKGLVYMSICGENENCPPGVGACFGQTRISVGKANKRLRYVDQVLQLVYKDGSPCPSKSGLSYKSVISFVCRPEAGPTNRPMLISLDKQTCTLFFSWHTPLACEQATHHHHHH
By Kd is commonly meant the constant that tells how readily two partners part at equilibrium. Usually koff stands for the first-order rate constant of dissociation. By kon is commonly meant the second-order rate constant of association. For the molecule B1, in assay [1], the “Relative Affinity” value was 7.33 fold (wild type = 1.00). Further, in assay [2], the Kd came out at 17.8 nM, the koff was 0.0407 s⁻¹ and the kon worked out at 2.29e+06 M⁻¹ s⁻¹. The Kd in assay [3] is 14.1 nM.

B2: IGF2R domain 11 with asparagine at position 1544 (E1544N) (receptor)
chain: NEHDDCQVTNPSTGHLFDLSSLSGRAGFTAAYSNKGLVYMSICGENENCPPGVGACFGQTRISVGKANKRLRYVDQVLQLVYKDGSPCPSKSGLSYKSVISFVCRPEAGPTNRPMLISLDKQTCTLFFSWHTPLACEQATHHHHHH
B2: the “Relative Affinity” value in assay [1] was 0.88 fold (wild type = 1.00). Also, in assay [2], the Kd came out at 141 nM, the koff stood at 0.122 s⁻¹ and the kon turned out to be 867000 M⁻¹ s⁻¹. Further, the Kd in assay [3] turned out to be 118 nM.

B3: IGF2R domain 11 with glycine at position 1544 (E1544G) (receptor)
chain: NEHDDCQVTNPSTGHLFDLSSLSGRAGFTAAYSGKGLVYMSICGENENCPPGVGACFGQTRISVGKANKRLRYVDQVLQLVYKDGSPCPSKSGLSYKSVISFVCRPEAGPTNRPMLISLDKQTCTLFFSWHTPLACEQATHHHHHH
On to B3, for which the “Relative Affinity” value in assay [1] is 0.57 fold (wild type = 1.00). Moreover, in assay [2], the Kd was found to be 199 nM, the koff was determined as 0.219 s⁻¹ and the kon worked out at 1.1e+06 M⁻¹ s⁻¹. Also, in assay [3], the Kd is 180 nM.

B4: IGF2R domain 11 with methionine at position 1544 (E1544M) (receptor)
chain: NEHDDCQVTNPSTGHLFDLSSLSGRAGFTAAYSMKGLVYMSICGENENCPPGVGACFGQTRISVGKANKRLRYVDQVLQLVYKDGSPCPSKSGLSYKSVISFVCRPEAGPTNRPMLISLDKQTCTLFFSWHTPLACEQATHHHHHH
With B4, the “Relative Affinity” value in assay [1] is 2.75 fold (wild type = 1.00). In assay [2], the Kd came to 44.6 nM, the koff turned out to be 0.0566 s⁻¹ and the kon came to 1.27e+06 M⁻¹ s⁻¹. Also, in assay [3], the Kd worked out at 37.6 nM.

B5: IGF2R domain 11 with isoleucine at position 1544 (E1544I) (receptor)
chain: NEHDDCQVTNPSTGHLFDLSSLSGRAGFTAAYSIKGLVYMSICGENENCPPGVGACFGQTRISVGKANKRLRYVDQVLQLVYKDGSPCPSKSGLSYKSVISFVCRPEAGPTNRPMLISLDKQTCTLFFSWHTPLACEQATHHHHHH
On to B5, for which, in assay [1], the “Relative Affinity” value is 2.43 fold (wild type = 1.00). Besides, in assay [2], the Kd amounted to 49.9 nM, the koff was found to be 0.0649 s⁻¹ and the kon was determined as 1.3e+06 M⁻¹ s⁻¹. In addition, in assay [3], the Kd stood at 42.5 nM.

B6: IGF2R domain 11 with tyrosine at position 1544 (E1544Y) (receptor)
chain: NEHDDCQVTNPSTGHLFDLSSLSGRAGFTAAYSYKGLVYMSICGENENCPPGVGACFGQTRISVGKANKRLRYVDQVLQLVYKDGSPCPSKSGLSYKSVISFVCRPEAGPTNRPMLISLDKQTCTLFFSWHTPLACEQATHHHHHH
Take B6: in assay [1], the “Relative Affinity” value is 1.8 fold (wild type = 1.00). Further, in assay [2], the Kd is 65 nM, the koff was determined as 0.0614 s⁻¹ and the kon was determined as 944000 M⁻¹ s⁻¹. For the same molecule, the Kd in assay [3] amounted to 57.4 nM.

B7: IGF2R domain 11 with serine at position 1544 (E1544S) (receptor)
chain: NEHDDCQVTNPSTGHLFDLSSLSGRAGFTAAYSSKGLVYMSICGENENCPPGVGACFGQTRISVGKANKRLRYVDQVLQLVYKDGSPCPSKSGLSYKSVISFVCRPEAGPTNRPMLISLDKQTCTLFFSWHTPLACEQATHHHHHH
As for B7, the “Relative Affinity” value in assay [1] was 5.24 fold (wild type = 1.00). Also, in assay [2], the dissociation constant (Kd) turned out to be 23.3 nM, the koff was found to be 0.0494 s⁻¹ and the kon amounted to 2.12e+06 M⁻¹ s⁻¹. Further, the Kd in assay [3] came out at 19.7 nM.

B8: IGF2R domain 11 with histidine at position 1544 (E1544H) (receptor)
chain: NEHDDCQVTNPSTGHLFDLSSLSGRAGFTAAYSHKGLVYMSICGENENCPPGVGACFGQTRISVGKANKRLRYVDQVLQLVYKDGSPCPSKSGLSYKSVISFVCRPEAGPTNRPMLISLDKQTCTLFFSWHTPLACEQATHHHHHH
For B8, the “Relative Affinity” value in assay [1] is 3.07 fold (wild type = 1.00). In addition, in assay [2], the Kd amounted to 38.3 nM, the koff amounted to 0.0689 s⁻¹ and the on-rate (kon) was 1.8e+06 M⁻¹ s⁻¹. In addition, the Kd in assay [3] was 33.7 nM.

B9: IGF2R domain 11 with threonine at position 1544 (E1544T) (receptor)
chain: NEHDDCQVTNPSTGHLFDLSSLSGRAGFTAAYSTKGLVYMSICGENENCPPGVGACFGQTRISVGKANKRLRYVDQVLQLVYKDGSPCPSKSGLSYKSVISFVCRPEAGPTNRPMLISLDKQTCTLFFSWHTPLACEQATHHHHHH
Take B9: the “Relative Affinity” value in assay [1] is 1.72 fold (wild type = 1.00). Also, in assay [2], the Kd was 69.3 nM, the koff was determined as 0.0692 s⁻¹ and the kon is 998000 M⁻¹ s⁻¹. In addition, the Kd in assay [3] was 60 nM.

B10: IGF2R domain 11 with leucine at position 1544 (E1544L) (receptor)
chain: NEHDDCQVTNPSTGHLFDLSSLSGRAGFTAAYSLKGLVYMSICGENENCPPGVGACFGQTRISVGKANKRLRYVDQVLQLVYKDGSPCPSKSGLSYKSVISFVCRPEAGPTNRPMLISLDKQTCTLFFSWHTPLACEQATHHHHHH
For B10, the “Relative Affinity” value in assay [1] is 2.02 fold (wild type = 1.00). Further, in assay [2], the Kd came out at 62.4 nM, the koff is 0.0655 s⁻¹ and the kon stood at 1.05e+06 M⁻¹ s⁻¹. In assay [3], the Kd is 51.1 nM.

B11: IGF2R domain 11 with phenylalanine at position 1544 (E1544F) (receptor)
chain: NEHDDCQVTNPSTGHLFDLSSLSGRAGFTAAYSFKGLVYMSICGENENCPPGVGACFGQTRISVGKANKRLRYVDQVLQLVYKDGSPCPSKSGLSYKSVISFVCRPEAGPTNRPMLISLDKQTCTLFFSWHTPLACEQATHHHHHH
As for B11, in assay [1], the “Relative Affinity” value is 1.83 fold (wild type = 1.00). For the same molecule, in assay [2], the Kd worked out at 69.4 nM, the koff turned out to be 0.0791 s⁻¹ and the on-rate (kon) is 1.14e+06 M⁻¹ s⁻¹. In assay [3], the Kd worked out at 56.4 nM.

B12: IGF2R domain 11 with proline at position 1544 (E1544P) (receptor)
chain: NEHDDCQVTNPSTGHLFDLSSLSGRAGFTAAYSPKGLVYMSICGENENCPPGVGACFGQTRISVGKANKRLRYVDQVLQLVYKDGSPCPSKSGLSYKSVISFVCRPEAGPTNRPMLISLDKQTCTLFFSWHTPLACEQATHHHHHH
Turning to B12, the “Relative Affinity” value in assay [1] is 0.49 fold (wild type = 1.00). In assay [2], the Kd came to 234 nM, the off-rate (koff) was 0.172 s⁻¹ and the kon stood at 734000 M⁻¹ s⁻¹. Further, the Kd in assay [3] was 211 nM.

B13: IGF2R domain 11 with tryptophan at position 1544 (E1544W) (receptor)
chain: NEHDDCQVTNPSTGHLFDLSSLSGRAGFTAAYSWKGLVYMSICGENENCPPGVGACFGQTRISVGKANKRLRYVDQVLQLVYKDGSPCPSKSGLSYKSVISFVCRPEAGPTNRPMLISLDKQTCTLFFSWHTPLACEQATHHHHHH
In the case of B13, the “Relative Affinity” value in assay [1] is 1.94 fold (wild type = 1.00). Further, in assay [2], the Kd was 62.8 nM, the koff stood at 0.0588 s⁻¹ and the on-rate (kon) came to 936000 M⁻¹ s⁻¹. Also, in assay [3], the Kd was 53.2 nM.

B14: IGF2R domain 11 with glutamine at position 1544 (E1544Q) (receptor)
chain: NEHDDCQVTNPSTGHLFDLSSLSGRAGFTAAYSQKGLVYMSICGENENCPPGVGACFGQTRISVGKANKRLRYVDQVLQLVYKDGSPCPSKSGLSYKSVISFVCRPEAGPTNRPMLISLDKQTCTLFFSWHTPLACEQATHHHHHH
With B14, the “Relative Affinity” value in assay [1] is 3.87 fold (wild type = 1.00). Besides, in assay [2], the Kd turned out to be 32.8 nM, the koff came to 0.0578 s⁻¹ and the kon came to 1.76e+06 M⁻¹ s⁻¹. In addition, in assay [3], the Kd amounted to 26.7 nM.

B15: IGF2R domain 11 with aspartate at position 1544 (E1544D) (receptor)
chain: NEHDDCQVTNPSTGHLFDLSSLSGRAGFTAAYSDKGLVYMSICGENENCPPGVGACFGQTRISVGKANKRLRYVDQVLQLVYKDGSPCPSKSGLSYKSVISFVCRPEAGPTNRPMLISLDKQTCTLFFSWHTPLACEQATHHHHHH
On to B15, for which the “Relative Affinity” value in assay [1] is 0.48 fold (wild type = 1.00). Moreover, in assay [2], the Kd stood at 230 nM, the koff is 0.14 s⁻¹ and the kon was 608000 M⁻¹ s⁻¹. In addition, the Kd in assay [3] turned out to be 213 nM.
